Assay results reported in publication PMC9482650, “Quantitative fragmentomics allow affinity mapping of interactomes” (Nature Communications, 2022).

Legend:
Assay in all cases: holdup assay
Design in all cases: key: below the threshold = too weak to quantify, mostly under pKd 3.1 to 4
DLG4_2, P78352 = target: DLG4_2, P78352
SCRIB_3, Q14160 = target: SCRIB_3, Q14160
Inadl_6, Q8NI35 = target: Inadl_6, Q8NI35
NHERF2_2, Q15599 = target: NHERF2_2, Q15599
TJP3_3, O95049 = target: T1, TJP3_3, O95049
T1 sequence (O95049 375-456, limits assumed, looked up): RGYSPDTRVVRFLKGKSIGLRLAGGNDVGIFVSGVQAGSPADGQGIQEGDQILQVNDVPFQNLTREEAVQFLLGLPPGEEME

DFNB31_1, Q9P202 = target: T2, DFNB31_1, Q9P202
T2 sequence (Q9P202 135-233, limits assumed, looked up): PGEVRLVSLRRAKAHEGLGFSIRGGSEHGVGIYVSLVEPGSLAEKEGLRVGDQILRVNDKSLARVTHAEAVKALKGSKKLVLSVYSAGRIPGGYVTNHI

SCRIB_2, Q14160 = target: SCRIB_2, Q14160
SCRIB_2, Q14160, sequence (Q14160 857-960): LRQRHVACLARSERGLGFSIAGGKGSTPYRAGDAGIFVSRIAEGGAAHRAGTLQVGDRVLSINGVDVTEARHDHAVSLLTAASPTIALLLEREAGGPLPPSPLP

LRRC7, Q96NW7 = target: T3, LRRC7, Q96NW7
T3 sequence (Q96NW7 1440-1537, limits assumed, looked up): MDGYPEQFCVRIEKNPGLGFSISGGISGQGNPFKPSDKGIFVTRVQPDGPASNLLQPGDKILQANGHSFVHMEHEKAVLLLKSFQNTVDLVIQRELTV

GRASP, Q7Z6J2 = target: GRASP, Q7Z6J2
GRASP, Q7Z6J2, sequence (Q7Z6J2 96-193): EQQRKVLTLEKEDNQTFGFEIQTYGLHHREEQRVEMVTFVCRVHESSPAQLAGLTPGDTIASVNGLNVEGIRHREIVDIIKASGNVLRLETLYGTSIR

AHNAK1, Q09666 = target: AHNAK1, Q09666
SHANK1, Q9Y566 = target: T4, SHANK1, Q9Y566
T4 sequence (Q9Y566 658-767, limits assumed, looked up): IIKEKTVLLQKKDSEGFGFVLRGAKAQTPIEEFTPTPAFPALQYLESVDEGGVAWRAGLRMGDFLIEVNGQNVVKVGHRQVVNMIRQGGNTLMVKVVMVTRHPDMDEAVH

DLG2_2, Q15700 = target: DLG2_2, Q15700
DLG2_2, Q15700, sequence (Q15700 189-283): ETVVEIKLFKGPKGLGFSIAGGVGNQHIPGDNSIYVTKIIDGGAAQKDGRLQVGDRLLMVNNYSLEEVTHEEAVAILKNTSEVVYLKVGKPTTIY

LNX1_2, Q8TBB1 = target: LNX1_2, Q8TBB1
LNX1_2, Q8TBB1, sequence (Q8TBB1 371-470): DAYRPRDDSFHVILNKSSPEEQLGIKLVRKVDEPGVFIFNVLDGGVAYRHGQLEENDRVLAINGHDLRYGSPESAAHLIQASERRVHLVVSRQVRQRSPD

SIPA1L2, Q9P2F8 = target: T5, SIPA1L2, Q9P2F8
T5 sequence (Q9P2F8 945-1036, limits assumed, looked up): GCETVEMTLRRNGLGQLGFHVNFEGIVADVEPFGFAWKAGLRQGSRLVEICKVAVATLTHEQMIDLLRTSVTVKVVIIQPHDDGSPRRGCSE

SCRIB_1, Q14160 = target: SCRIB_1, Q14160
SCRIB_1, Q14160, sequence (Q14160 718-814): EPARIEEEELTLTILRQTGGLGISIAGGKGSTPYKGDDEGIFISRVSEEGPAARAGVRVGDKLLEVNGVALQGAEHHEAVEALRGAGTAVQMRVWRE

FRMPD3, Q5JV73 = target: FRMPD3, Q5JV73
FRMPD3, Q5JV73, sequence (Q5JV73 12-100): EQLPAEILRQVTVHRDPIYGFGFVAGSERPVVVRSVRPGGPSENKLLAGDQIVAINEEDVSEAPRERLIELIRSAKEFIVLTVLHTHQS

PTPN3, P26045 = target: PTPN3, P26045
PTPN3, P26045, sequence (P26045 505-587): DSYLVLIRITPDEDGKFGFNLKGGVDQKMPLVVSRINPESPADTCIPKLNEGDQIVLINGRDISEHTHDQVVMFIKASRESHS

SNTG2, Q9NY99 = target: T6, SNTG2, Q9NY99
T6 sequence (Q9NY99 68-166, limits assumed, looked up): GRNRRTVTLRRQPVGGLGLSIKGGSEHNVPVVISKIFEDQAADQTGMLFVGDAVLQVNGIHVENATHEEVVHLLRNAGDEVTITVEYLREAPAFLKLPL

PDZRN4_1, Q6ZMN7 = target: PDZRN4_1, Q6ZMN7
PDZRN4_1, Q6ZMN7, sequence (Q6ZMN7 213-318): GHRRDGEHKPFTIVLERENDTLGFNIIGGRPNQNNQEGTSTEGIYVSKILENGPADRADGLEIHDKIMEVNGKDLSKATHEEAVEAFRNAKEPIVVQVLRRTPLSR

SYNJ2BP, P57105 = target: T7, SYNJ2BP, P57105
T7 sequence (P57105 8-110, limits assumed, looked up): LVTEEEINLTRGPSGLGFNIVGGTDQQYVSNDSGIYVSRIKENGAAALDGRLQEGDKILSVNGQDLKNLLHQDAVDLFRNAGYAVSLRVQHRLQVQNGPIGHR

PTPN13_1, Q12923 = target: T8, PTPN13_1, Q12923
T8 sequence (Q12923 1088-1188, limits assumed, looked up): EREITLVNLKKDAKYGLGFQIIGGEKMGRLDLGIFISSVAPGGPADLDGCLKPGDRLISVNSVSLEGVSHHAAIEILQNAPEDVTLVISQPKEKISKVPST

ARHGAP21, Q5T5U3 = target: T9, ARHGAP21, Q5T5U3
T9 sequence (Q5T5U3 45-169, limits assumed, looked up): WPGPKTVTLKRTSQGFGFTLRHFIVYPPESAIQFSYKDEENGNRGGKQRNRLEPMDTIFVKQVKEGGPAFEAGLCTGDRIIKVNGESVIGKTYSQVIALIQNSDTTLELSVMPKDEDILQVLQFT

MPP2, Q14168 = target: T10, MPP2, Q14168
T10 sequence (Q14168 180-250, limits assumed, looked up): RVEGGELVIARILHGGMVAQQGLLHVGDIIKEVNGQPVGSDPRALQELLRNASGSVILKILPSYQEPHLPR

NHERF4_2, Q86UT5 = target: NHERF4_2, Q86UT5
NHERF4_2, Q86UT5, sequence (Q86UT5 220-308): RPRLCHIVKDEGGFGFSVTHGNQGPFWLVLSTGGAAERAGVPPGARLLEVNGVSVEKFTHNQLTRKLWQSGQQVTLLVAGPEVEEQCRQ

DLG3_2, Q92796 = target: T11, DLG3_2, Q92796
T11 sequence (Q92796 221-321, limits assumed, looked up): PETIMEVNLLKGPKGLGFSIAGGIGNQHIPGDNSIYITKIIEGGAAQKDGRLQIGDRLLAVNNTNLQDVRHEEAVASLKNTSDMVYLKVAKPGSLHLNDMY

DLG3_3, Q92796 = target: T12, DLG3_3, Q92796
T12 sequence (Q92796 374-475, limits assumed, looked up): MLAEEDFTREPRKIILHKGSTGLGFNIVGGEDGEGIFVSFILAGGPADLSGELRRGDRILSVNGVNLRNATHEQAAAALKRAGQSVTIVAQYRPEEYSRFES

[1] = plain residues with an end cap or a label only (N-terminal biotin on a linker: ahx)
[2] = plain residues with an end cap or a label only (N-terminal biotin on a linker: gsgsgs; C-terminal amide)

Measured: pKd

Inadl_6, Q8NI35, sequence (Q8NI35 1058-1167): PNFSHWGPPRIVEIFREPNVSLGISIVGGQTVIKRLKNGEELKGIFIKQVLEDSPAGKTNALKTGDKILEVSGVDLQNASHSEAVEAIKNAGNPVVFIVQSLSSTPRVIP
NHERF2_2, Q15599, sequence (Q15599 142-238): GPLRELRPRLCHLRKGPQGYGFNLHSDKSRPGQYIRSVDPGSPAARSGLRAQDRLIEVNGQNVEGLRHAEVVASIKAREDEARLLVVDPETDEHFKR
SCRIB_3, Q14160, sequence (Q14160 999-1103): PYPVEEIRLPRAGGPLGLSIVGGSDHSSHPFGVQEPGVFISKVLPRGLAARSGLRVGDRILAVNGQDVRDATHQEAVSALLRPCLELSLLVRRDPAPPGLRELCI
DLG4_2, P78352, sequence (P78352 155-259): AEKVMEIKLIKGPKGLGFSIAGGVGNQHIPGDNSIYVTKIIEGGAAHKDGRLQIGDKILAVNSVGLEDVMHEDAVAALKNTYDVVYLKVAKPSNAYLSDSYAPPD

PSASCAVTAA [PDLIM4, P50479;P50479-2]
below the threshold: DLG4_2, P78352; [1] | SCRIB_3, Q14160; [1] | Inadl_6, Q8NI35; [1] | NHERF2_2, Q15599; [1] | TJP3_3, O95049; [1] | DFNB31_1, Q9P202; [1] | SCRIB_2, Q14160; [1] | LRRC7, Q96NW7; [1] | GRASP, Q7Z6J2; [1] | AHNAK1, Q09666; [1] | SHANK1, Q9Y566; [1] | DLG2_2, Q15700; [1] | LNX1_2, Q8TBB1; [1] | SIPA1L2, Q9P2F8; [1] | SCRIB_1, Q14160; [1] | FRMPD3, Q5JV73; [1] | PTPN3, P26045; [1] | SNTG2, Q9NY99; [1] | PDZRN4_1, Q6ZMN7; [1] | SYNJ2BP, P57105; [1] | PTPN13_1, Q12923; [1] | ARHGAP21, Q5T5U3; [1] | MPP2, Q14168; [1] | NHERF4_2, Q86UT5; [1] | DLG3_2, Q92796; [1] | DLG3_3, Q92796; [1]

VSVDDVRSTSQGLSSY [DFNB31_int, Q9P202]
3.68: PTPN3, P26045; [2]
4.12: DLG3_2, Q92796; [2]
below the threshold: DLG4_2, P78352; [2] | SCRIB_3, Q14160; [2] | Inadl_6, Q8NI35; [2] | NHERF2_2, Q15599; [2] | TJP3_3, O95049; [2] | DFNB31_1, Q9P202; [2] | SCRIB_2, Q14160; [2] | LRRC7, Q96NW7; [2] | GRASP, Q7Z6J2; [2] | AHNAK1, Q09666; [2] | SHANK1, Q9Y566; [2] | DLG2_2, Q15700; [2] | LNX1_2, Q8TBB1; [2] | SIPA1L2, Q9P2F8; [2] | SCRIB_1, Q14160; [2] | FRMPD3, Q5JV73; [2] | SNTG2, Q9NY99; [2] | PDZRN4_1, Q6ZMN7; [2] | SYNJ2BP, P57105; [2] | PTPN13_1, Q12923; [2] | ARHGAP21, Q5T5U3; [2] | MPP2, Q14168; [2] | NHERF4_2, Q86UT5; [2] | DLG3_3, Q92796; [2]
